Assay results from publication PMC11508087 (2024).

Key:
Experiment in all cases: BLI
[1] = target: T1, FMDV O/Tibet/99 146S antigen (foot-and-mouth disease virus serotype …)
FMDV A/AF72 146S antigen [2] = target: T2, FMDV A/AF72 146S antigen (foot-and-mouth disease virus serotype …)
[3] = target: T1, FMDV O/Tibet/99 146S antigen; remark: listed apart in the source
FMDV A/AF72 146S antigen [4] = target: T2, FMDV A/AF72 146S antigen; remark: listed apart in the source

Row | Binder | koff [1] | koff (FMDV A/AF72 146S antigen [2]) | Kd [3] | Kd (FMDV A/AF72 146S antigen [4])
1 | pOA-13 (antibody, V domains shown) VH: EGQLVQSGGGRVQPGGSLRLVCVGSGDDGLGHYAVTWVRQAPGRGLEWLASDASRVTTTYYADSVKGRFTSTLDIPHNTAYLQMNSLKTEDTARYFCARNVWTLDIWGPGVEVVVS VL: QTVIQEPAMSVSLGGTVTLTCAFRGGSVDGDNYPGWLRQQTPGQPPRLLISSTNNRPTGVPSRFSGTISGNKATLTITGAQTEDEADYFCALWNDNNNRLIFGGGTRLTVL | 0.00143 s⁻¹ | 0.00634 s⁻¹ | 1.8 nM | 5.11 nM
2 | pOA-1 (antibody, V domains shown) VH: EENVVESGGGLVRPGGSLRLSCIFSGFTFSTYSVRWVRQAPGKGLEFLTYIFKNVGDIDTADSVKGRFTISRDNSQNTAYLQMNSLRPEDTARYFCLVANKYWGPGVEVLVSS VL: AIVLTQSPLSLSVSPGDSASISCRSSQSLVEDDGSSVLNWYLQRPGQSPQRLIYSAVGRDAGVPDRFSGSGSGTDFTLTISGVEAEDLGVYYCQQSKVSTTFGAGSKLDLK | 2.88e-05 s⁻¹ | 0.00467 s⁻¹ |  | 2.48 nM
3 | pOA-2 (antibody, V domains shown) VH: EEKVVESGGGLVQPGGSLRLSCVGSGFNFKNYEINWVRQAPGKALEWLAYITQTSDFIYYADSVKGRFTISRDNSRNTAYLQMNNLRTEDTARYFCTRAGLTGCKSRHCMYVWGPGAEVVVSS VL: QTVIQEPAMSVSLGGTVTLTCGFISGSVTGTNYPSWFQQTPGQPPRLLIYYANSRPTEVPSRFSGAISGNKAALTITGAQAEDEADYFCCLYKTNNNILFGGGTHLTVL | 0.00242 s⁻¹ | 0.00249 s⁻¹ | 4.85 nM | 4.44 nM
